{"source": "patent US20130115635A1", "about": "(VIB VZW, published 2013)", "binders": {"B1": {"name": "Nb86 (VHH)", "VHH": "QVQLQESGGGSVQAGGSLRLSCALSGYTFRGNRMAWFRQAPGKEREGVARINTGGVNTYVADSVKGRFTISQDNAKNTVYLQMNNLQPEDTAMYFCAADLTGWRPVGFSGYNYWGQGTQVTVSS"}, "B2": {"name": "NbSyn2 (VHH)", "VHH": "QGQLVESGGGSVQAGGSLRLSCAASGIDSSSYCMGWFRQRPGKEREGVARINGLGGVKTAYADSVKDRFTISRDNAENTVYLQMNSLKPEDTAIYYCAAKFSPGYCGGSWSNFGYWGQGTQVTVSS", "notes": "also called His-tagged NbSyn2; NbSyn2-His6tagged"}, "B3": {"name": "Nb85 (VHH)", "VHH": "QVQLQESGGGSVQAGGSLRLSCAASGLTYSNYCMGWFRQAPGKAREVVARISTRGIKTYYADSVNGRFTISRDNAKNMVYLQMNSLKPEDTAIYYCAAVIYPGYGDSCPWTTSVNYWGQGTQVTVSS", "notes": "also called NbSyn85"}, "B4": {"name": "NbSyn1b (VHH)", "VHH": "DVQLVESGGGSVQAGGSLRLSCAPSGLNASSYCMGWFRQSPGKEREGVARINGNAGIKTAYADSVKDRFTLSRDNAKNTVYLQMNSLKAEDSAMYYCAAKSSPGYCGGNWDNFGYWGQGTQVTVSS"}, "B5": {"name": "NbSyn1a-mKO1 (VHH)", "VHH": "B4 VHH with D1E, R19S, S21A, M94I, Y96F", "notes": "not shown: mKO1, mKusabira orange fluorescent protein"}, "B6": {"name": "NbSyn1a-GFP (VHH)", "VHH": "B4 VHH with D1E, R19S, S21A, M94I, Y96F"}, "B7": {"name": "NbSyn1c (VHH)", "VHH": "B4 VHH with D1Q, S25L"}, "B8": {"name": "NbSyn1a (VHH)", "VHH": "B4 VHH with D1E, R19S, S21A, M94I, Y96F"}, "B9": {"name": "biNbSyn2 alkaline phosphatase conjugate (VHH)", "chain": "QVQLVESGGGSVQAGGSLRLSCAASGIDSSSYCMGWFRQRPGKEREGVARINGLGGVKTAYADSVKDRFTISRDNAENTVYLQMNSLKPEDTAIYYCAAKFSPGYCGGSWSNFGYWGQGTQVTVSSGGGGSGGGSQVQLQESGGGSVQAGGSLRLSCAASGIDSSSYCMGWFRQRPGKEREGVARINGLGGVKTAYADSVKDRFTISRDNAENTVYLQMNSLKPEDTAIYYCAAKFSPGYCGGSWSNFGYWGQGTQVTVSSHHHHHH", "notes": "also called biNbSyn2-AP; bivalent NbSyn2"}, "B10": {"name": "Nb87 (VHH)", "VHH": "QVQLQESGGGSVQTGGSLRLSCVASGYSGYMAWFRQAPGKEREGIAAIYRGDKITYYAHSVQGRFTISQANAKNTVYLLMNSLKPEDTAIYYCAARRVVADSPLLSKTYAYWGQGTQVTVSS"}}, "key": {"β-synuclein": {"target": "T1, β-synuclein (UniProt Q16143 1-134)", "T1 construct": "also called beta-synuclein", "T1 sequence (Q16143 whole entry)": "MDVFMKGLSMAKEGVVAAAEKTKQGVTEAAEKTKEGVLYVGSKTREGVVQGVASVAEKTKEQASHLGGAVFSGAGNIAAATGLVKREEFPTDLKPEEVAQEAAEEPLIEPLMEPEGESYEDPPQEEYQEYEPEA", "test": "phage display panning on immobilised antigen"}, "Nb458-… (CA2944)": {"target": "Nb458-… (CA2944)", "test": "affinity capture on NbSyn2 sepharose, elution with 1 M NaCl, SDS-PAGE"}, "Nb458-gaaEPEA (CA2945) [1]": {"target": "T2, Nb458-gaaEPEA (CA2945)", "T2 construct": "also called Nb458 tagged with the gaaEPEA tag", "T2 sequence (VHH, as listed by the source)": "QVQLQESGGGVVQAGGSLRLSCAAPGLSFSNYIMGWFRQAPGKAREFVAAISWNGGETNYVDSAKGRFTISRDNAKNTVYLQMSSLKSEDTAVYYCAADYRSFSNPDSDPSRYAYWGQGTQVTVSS", "test": "affinity capture on NbSyn2 sepharose, elution with 1 M NaCl, SDS-PAGE"}, "α-synuclein [2]": {"target": "T3, α-synuclein (UniProt P37840 1-140)", "test": "ITC, 293.1 K"}, "α-synuclein [3]": {"target": "T3, α-synuclein", "test": "ITC, 310.1 K"}, "α-synuclein [4]": {"target": "T3, α-synuclein", "test": "ITC, 298.1 K"}, "α-synuclein [5]": {"target": "T3, α-synuclein", "test": "ITC, 303.1 K"}, "α-synuclein [6]": {"target": "T3, α-synuclein", "test": "phage display panning on immobilised antigen"}, "Rev-[…]": {"target": "T4, Rev-[…] (HIV)", "T4 construct": "also called HIV-Rev-EPEA", "test": "colocalisation in double-transfected HeLa cells, confocal microscopy"}, "Nb458-gaaEPEA (CA2945) [7]": {"target": "T2, Nb458-gaaEPEA (CA2945)", "test": "ELISA: Nb458-gaaEPEA coated at 0.1 or 0.01 µg/well, detected with biNbSyn2 alkaline phosphatase conjugate at dilutions 1/250 to 1/4000, OD405 after 60 minutes"}, "α-synuclein [8]": {"target": "T3, α-synuclein", "test": "15N-1H HSQC NMR titration"}}, "note": "Numbering of substitutions follows the chain as printed."}
{"binder": "B1", "values": [{"measurement": "binding result", "setting": "β-synuclein", "value": "binds"}]}
{"binder": "B2", "values": [{"measurement": "binding result", "setting": "Nb458-… (CA2944)", "value": "binds"}, {"measurement": "binding result", "setting": "Nb458-gaaEPEA (CA2945) [1]", "value": "binds"}, {"measurement": "Stoichiometry", "setting": "α-synuclein [2]", "value": 0.99}, {"measurement": "Kd", "setting": "α-synuclein [3]", "value": 260, "unit": "nM"}, {"measurement": "Stoichiometry", "setting": "α-synuclein [3]", "value": 0.91}, {"measurement": "Stoichiometry", "setting": "α-synuclein [4]", "value": 0.93}, {"measurement": "Kd", "setting": "α-synuclein [5]", "value": 99, "unit": "nM"}, {"measurement": "Stoichiometry", "setting": "α-synuclein [5]", "value": 0.87}]}
{"binder": "B3", "values": [{"measurement": "binding result", "setting": "β-synuclein", "value": "binds"}]}
{"binder": "B4", "values": [{"measurement": "binding result", "setting": "α-synuclein [6]", "value": "binds"}]}
{"binder": "B5", "values": [{"measurement": "binding result", "setting": "Rev-[…]", "value": "binds"}]}
{"binder": "B6", "values": [{"measurement": "binding result", "setting": "Rev-[…]", "value": "binds"}]}
{"binder": "B7", "values": [{"measurement": "binding result", "setting": "α-synuclein [6]", "value": "binds"}]}
{"binder": "B8", "values": [{"measurement": "binding result", "setting": "α-synuclein [6]", "value": "binds"}]}
{"binder": "B9", "values": [{"measurement": "binding result", "setting": "Nb458-gaaEPEA (CA2945) [7]", "value": "binds"}]}
{"binder": "B10", "values": [{"measurement": "binding result", "setting": "α-synuclein [8]", "value": "binds"}, {"measurement": "binding result", "setting": "β-synuclein", "value": "binds"}]}
